According to patent publication US9976167B2, “Group of glycosyltransferases and use thereof” (Shanghai Institutes For Biological Sciences, Chinese …, priority 2012, dated 2018):

How the values were obtained:
prostate cancer cells = conditions: cited from earlier work
osteoclasts = conditions: cited from earlier work
lung cancer cells 3LL = lung cancer cells 3LL (mice); cited from earlier work
[1] = tested on: Morris liver cancer cells; conditions: Morris liver cancer cells (rats); cited from earlier work
B-16 melanoma cells = B-16 melanoma cells (mice); cited from earlier work
HeLa cells = HeLa cells (human); cited from earlier work
[2] = Glycosyltransfering reaction with crude enzyme, substrate PPD; format: biochemical; conditions: cell lysate of recombinant yeasts, method of Example 4
[3] = Glycosyltransfering reaction with crude enzyme, substrate PPT; format: biochemical; conditions: cell lysate of recombinant yeasts, method of Example 4
[4] = Glycosyltransfering reaction with crude enzyme, substrate Rh2; format: biochemical; conditions: cell lysate of recombinant yeasts, method of Example 4
Experimental: (§1) The lysate supernatant of the recombinant yeasts expressing the empty vector was used as control.
(§2) The reaction was conducted under 35° C. for 12 hrs, then stopped by adding 100 μL of butanol. The product were extracted, dried in vacuum, and dissolved in methanol.
(§3) The reaction products were first detected by thin layer chromatography (TLC). […]
(§4) The lysate supernatant of the recombinant yeast expressing empty vectors was used as control. The reaction was conducted under 35° C. for 12 hrs, and then stopped by adding 100 μL of butanol. The product were extracted, dried in vacuum, and dissolved in methanol.
(§5) The glycosyltransfering reactions of ginsenosides Rh2 and F2 were catalyzed by using the lysate supernatant of the recombinant yeasts expressing 3GT1, 3GT2, 3GT3 and 3GT4 as crude enzymes. The 100 μL reaction system is shown as Table 3. The reaction was conducted under 35° C. for 12 hrs, and then stopped by adding 100 μL of butanol. The product were extracted, dried in vacuum, and dissolved in methanol.

[5] = Glycosyltransfering reaction with crude enzyme, substrate Rg3; format: biochemical; conditions: cell lysate of recombinant yeasts, method of Example 4
Experimental: as §1, §2, §3

[6] = Glycosyltransfering reaction with crude enzyme, substrate CK; format: biochemical; conditions: cell lysate of recombinant yeasts, method of Example 4
Experimental: (§6) According to the method as in Example 4, the cell lysate of recombinant yeasts expressing gGT13 and gGT30 were used to catalyze PPD and PPT.
as §5, with “ginsenosides” for “ginsenosides Rh2”, “ginsengenins” for “F2”, “lysis” for “lysate”, “enzymes. The lysis supernatant of recombinant E. coli expressing empty vectors was used as control.” for “enzymes.”, “hrs,” for “hrs, and”

[7] = Glycosyltransfering reaction with crude enzyme, substrate F2; format: biochemical; conditions: cell lysate of recombinant yeasts, method of Example 4
Experimental: as §6, §4, §5

[8] = Glycosyltransfering reaction with crude enzyme, substrate F1; format: biochemical; conditions: cell lysate of recombinant yeasts, method of Example 4
Experimental: as §6
as §4, with “lysis” for “lysate”, “of” for “of the”, “E. coli” for “yeast”, “control. The 100 μL reaction system is shown as Table 3.” for “control.”, “hrs,” for “hrs, and”

[9] = Glycosyltransfering reaction with crude enzyme, substrate Rh1; format: biochemical; conditions: cell lysate of recombinant yeasts, method of Example 4
Experimental: as §1, §2, §3

[10] = Glycosyltransfering reaction with crude enzyme, substrate Rg1; format: biochemical; conditions: cell lysate of recombinant yeasts, method of Example 4

Molecule | inhibition of prostate cancer cells (prostate cancer cells) | cytotoxicity to osteoclasts (osteoclasts) | inhibition of the generation of osteoclasts (osteoclasts) | inhibition of proliferation (lung cancer cells 3LL) | inhibition of proliferation [1] | inhibition of proliferation (B-16 melanoma cells) | inhibition of proliferation (HeLa cells) | conversion of PPD [2] | conversion of PPT [3] | conversion of Rh2 [4] | conversion of Rg3 [5] | conversion of CK [6] | conversion of F2 [7] | conversion of F1 [8] | conversion of Rh1 [9] | conversion of Rg1 [10]
CC(C)=CCC[C@](C)(O)[C@H]1CC[C@]2(C)[C@@H]1[C@H](O)C[C@@H]1[C@@]3(C)CC[C@H](O[C@@H]4O[C@H](CO)[C@@H](O)[C@H](O)[C@H]4O)C(C)(C)[C@@H]3CC[C@]12C [ginsenoside Rh2, 3-O-β-(D-glucopyranosyl)-20(S)-protopanaxadiol] | significantly inhibit | strong cytotoxicity | poorly inhibits | can inhibit the proliferation | can inhibit the proliferation | can inhibit the proliferation | can inhibit the proliferation |  |  |  |  |  |  |  |  | 
gGT13: glycosyltransferase protein with 476 amino acids, SEQ ID NO.: 4 (protein, Panax ginseng; gGT13) MGAELILIPSPGVGHLVSTVEIAKLLISRDERLSITVLVMKFSHDTGVTAYTRSLQKDAPNRIVFVDLPQNESLISSPKSFFTSFIESQTSPVRDSVRQIVSRSDSNKLAGFVIDMFCTPMIDVANEFGVPTYVFFTSGAAFLGLQFYHLSLSDEHNQDLTEYKDTDVELSIPSFINPVPAKVLPSVILNKEGSTMLQSISRRFKEAKAILVNTFAELEPHAIKALGDNCKIPPIYPVGPIINLKNKEGTTQNHSSEDGIISWLDNQPPSSVVFLCFGSFGSFDEGQVREIANGLEQSGQRFLWSLRRRPEKMELPKDYENPEEVLPEGFIERTSGMGKVIGWAPQTAILSHPAVGGFVSHCGWNSTLESIWCGVPMATWPIYAEQQINAFELVKELGMAVEIKMDYREDYIFAPENNLVVTADQIEKGMRCLMMDGESEMRKKVEEMKEKSRMAMVKGGSSYISLGHFIEDVMRN |  |  |  |  |  |  |  | neither converted | neither converted | neither converted | neither converted | neither converted | neither converted | neither converted | neither converted | neither converted
gGT30: glycosyltransferase protein with 451 amino acids, SEQ ID NO.: 6 (protein, Panax ginseng; gGT30) MATQKCFRVLVFPWLAHGHISPFLELARKLIEKGNFFIYFCSTPINLISIKKKLSGDDHQNYTKSIQLVEHNLPTLPQLPPHYHTTDGLPPNLNPTLRKAFEMSKLSFPNTLNTLKPDLLICDDLFQWPEIVASSHGVPVVRFQTCSVTAASFLAHIFTNPDVTYPFPAIYLHEYETDQIRRCVDAVFESGREESRNLLVVNTSKAIEEKYFYYYSLLRGNTKIMPVGPLIQQAPNGDEDMKVIEWLDKKDPCSTVFVSFGSEYFMQKEEVEEMAHGLELSNVNFIWVFRAPVGAEKVKLPLGFVERVGGRGIVMEGWAPQARILGHSSIGGFVSHCGWNSVLETINFGVPIIGMPMKFEQPMNARLLSELGVCVEIVGDETRRFGREEVGNVIREVVGGKIGDDLRRKVKELGAKIKEKQEEEMDDVLDELVQICNKKKRTVVHHHHHH |  |  |  |  |  |  |  | neither converted | neither converted | neither converted | neither converted | neither converted | neither converted | neither converted | neither converted | neither converted
